T1: Recombinant human IL-23 receptor (IL-23R) extracellular domain (ECD) protein (human, UniProt Q5VWK5 24-355)
T1 construct: also called human IL-23R ECD; hu IL-23R ECD
T1 sequence: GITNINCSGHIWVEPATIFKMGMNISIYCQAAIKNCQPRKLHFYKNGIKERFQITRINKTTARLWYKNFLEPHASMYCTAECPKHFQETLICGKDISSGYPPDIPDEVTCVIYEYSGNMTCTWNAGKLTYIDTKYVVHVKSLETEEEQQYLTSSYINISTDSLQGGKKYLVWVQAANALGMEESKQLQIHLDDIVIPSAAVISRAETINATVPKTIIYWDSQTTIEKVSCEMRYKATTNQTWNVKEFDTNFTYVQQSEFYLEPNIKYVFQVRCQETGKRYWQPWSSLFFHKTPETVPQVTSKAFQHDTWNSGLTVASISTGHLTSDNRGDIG

T2: rat IL-23R extracellular domain (ECD) protein (rat)
T2 construct: also called rat IL-23R ECD; F1LX96 amino acids 24-354
T2 chain: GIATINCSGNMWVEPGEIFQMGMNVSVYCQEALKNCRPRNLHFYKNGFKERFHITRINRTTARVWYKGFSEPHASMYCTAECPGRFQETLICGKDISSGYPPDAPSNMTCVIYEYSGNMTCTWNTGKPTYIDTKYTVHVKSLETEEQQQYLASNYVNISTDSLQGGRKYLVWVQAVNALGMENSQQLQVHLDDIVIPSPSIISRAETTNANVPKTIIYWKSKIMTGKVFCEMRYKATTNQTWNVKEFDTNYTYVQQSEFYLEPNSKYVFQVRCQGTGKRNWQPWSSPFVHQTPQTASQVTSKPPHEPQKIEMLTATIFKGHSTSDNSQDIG

T3: human IL-23R extracellular domain (ECD) protein (human, UniProt Q5VWK5 24-355)
T3 construct: Recombinant ECD; also called hu IL-23R ECD
T3 sequence: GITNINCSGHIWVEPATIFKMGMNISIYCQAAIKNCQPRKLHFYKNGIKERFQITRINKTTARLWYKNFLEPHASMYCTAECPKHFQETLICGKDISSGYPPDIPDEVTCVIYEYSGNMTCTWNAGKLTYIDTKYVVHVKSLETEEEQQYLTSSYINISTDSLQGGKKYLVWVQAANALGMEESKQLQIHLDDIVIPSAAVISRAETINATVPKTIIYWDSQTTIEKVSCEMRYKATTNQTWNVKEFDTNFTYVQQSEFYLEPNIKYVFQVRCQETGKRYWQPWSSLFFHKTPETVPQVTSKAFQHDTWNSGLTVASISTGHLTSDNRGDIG

T4: human IL-23R expressed on the cell surface of stably transfected iLite and HEK cell lines (human, UniProt Q5VWK5 24-629)
T4 construct: whole, on cells; Same receptor on two transfected cell lines; the cell line is named under assay; also called human IL-23R iLite cells; human IL-23R HEK cells
T4 sequence (looked up): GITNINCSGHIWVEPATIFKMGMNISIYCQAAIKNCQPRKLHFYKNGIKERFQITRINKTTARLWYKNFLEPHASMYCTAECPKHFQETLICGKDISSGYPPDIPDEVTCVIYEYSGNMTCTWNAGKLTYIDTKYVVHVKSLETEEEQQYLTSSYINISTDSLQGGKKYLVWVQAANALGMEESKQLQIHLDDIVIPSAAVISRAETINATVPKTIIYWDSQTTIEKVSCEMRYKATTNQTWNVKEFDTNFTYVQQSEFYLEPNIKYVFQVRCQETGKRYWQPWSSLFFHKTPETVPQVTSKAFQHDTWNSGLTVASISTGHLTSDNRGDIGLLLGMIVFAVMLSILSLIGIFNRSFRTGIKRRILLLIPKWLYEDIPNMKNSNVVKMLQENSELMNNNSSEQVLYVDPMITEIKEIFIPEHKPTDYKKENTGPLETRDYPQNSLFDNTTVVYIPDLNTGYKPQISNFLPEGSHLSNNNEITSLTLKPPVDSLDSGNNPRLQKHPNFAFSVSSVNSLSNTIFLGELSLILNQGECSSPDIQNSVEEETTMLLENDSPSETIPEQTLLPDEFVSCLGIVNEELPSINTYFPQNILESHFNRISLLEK


Tests used:
[1] = biological target: T1, Recombinant human IL-23 receptor …; experiment: SPR ProteOn, purified
Description: Affinity by SPR using ProteOn. Affinity measurements using Surface Plasmon Resonance (SPR) were performed using a ProteOn XPR36 system (BioRad). […] Approximately 6000 RU (response units) of mAbs were immobilized. The kinetic experiments were performed at 25° C. in running buffer (DPBS+0.01% P20+100 μg/ml BSA). […] The association phase was monitored for 3 minutes at 50 μL/min, then followed by 10 minutes of buffer flow (dissociation phase). The chip surface was regenerated with two 18 second pulses of 100 mM H3PO4 (Sigma, Cat #7961) at 100 μL/min. The collected data were processed using ProteOn Manager software. First, the data was corrected for background using inter-spots. Then, double reference subtraction of the data was performed by using the buffer injection for analyte injections. The kinetic analysis of the data was performed using a Langmuir 1:1 binding model. The result for each mAb was reported in the format of Ka (On-rate), Kd (Off-rate) and KD (equilibrium dissociation constant).

[2] = biological target: T2, rat IL-23R extracellular domain (ECD) …; experiment: SPR Biacore 8K, purified
Description: (§1) Affinity by SPR using Biacore 8K. Affinity measurements using Surface Plasmon Resonance (SPR) were performed using a Biacore 8K system (Cytiva). […] Approximately 9000-10000 RU (response units) of mAbs were immobilized. The kinetic experiments were performed at 25° C. in running buffer 1× of (HBS-P+ Buffer 10× (Cytiva #BR100671)+100 μg/ml BSA). To perform kinetic experiments, approximately 150 RU of mAbs were captured followed by injections of human IL-23R or rat IL-23R at concentrations ranging from 0.8 nM to 500 nM (in a 5-fold serial dilution). The association phase was monitored for 3 minutes at 50 μL/min, then followed by 30 minutes of buffer flow (dissociation phase). […] The collected data were processed using Biacore insight Evaluation software (Version 3.0.12.15655). The kinetic analysis of the data was performed using a Langmuir 1:1 binding model. The result for each mAb was reported in the format of Ka (On-rate), Kd (Off-rate) and KD (equilibrium dissociation constant).

[3] = biological target: T1, Recombinant human IL-23 receptor …; experiment: SPR Biacore 8K, purified, analysis 1
Description: as §1

[4] = biological target: T1, Recombinant human IL-23 receptor …; experiment: SPR Biacore 8K, supernatant, analysis 2
Procedure, shortened: (§2)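 Kinetics fitted to a 1:1 Langmuir model gave on-rate, off-rate and KD. Human or rat IL-23R ECD flowed over captured mAbs (~150 RU) at 0.8–500 nM, 5-fold dilutions: 3 min binding at 50 μL/min, then 30 min buffer, 25 °C, HBS-P+ plus 100 μg/ml BSA.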

[5] = biological target: T1, Recombinant human IL-23 receptor …; experiment: SPR Biacore 8K, purified, analysis 2
Description: as §1

[6] = biological target: T1, Recombinant human IL-23 receptor …; experiment: SPR Biacore 8K, supernatant, analysis 1
Procedure, shortened: as §2

[7] = biological target: T3, human IL-23R extracellular domain (ECD) …; experiment: column 'Affinity to hu IL-23R ECD' (summary of SPR data)
[8] = biological target: T4, human IL-23R expressed on the cell …; experiment: flow cytometry on human IL-23R HEK cells, Expt D (8-point, 96well)
Procedure, shortened: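 Serially diluted IL-23R mAbs bound to mixed HEK-IL-23R and parental HEK cells for 30 min at 37 °C, in duplicate. After washes, 647 detection antibody geometric MFI measured on single viable (Sytox Green-negative) cells and fitted to a variable-slope dose-response against log mAb concentration.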

[9] = biological target: T4, human IL-23R expressed on the cell …; experiment: flow cytometry on human IL-23R HEK cells, Expt E (11-point, 384well)
Procedure, shortened: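 Antibody bound to HEK-IL-23R cells 30 min at 37 °C over 11 concentrations; after washes, Sytox Green added and cells run on iQue. Geometric MFI of 647 detection antibody on single viable cells fitted by variable-slope dose–response.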

Row | Binder | binding result [2] | Kd [3] [nM] | koff [3] [s⁻¹] | kon [3] [M⁻¹ s⁻¹] | Kd [4] [nM] | koff [4] [s⁻¹] | kon [4] [M⁻¹ s⁻¹] | Kd [5] [nM] | koff [5] [s⁻¹] | kon [5] [M⁻¹ s⁻¹] | further results
1 | I23RB1 (antibody, mouse IgG2a, kappa, V domains shown, phage display; human V regions, mouse IgG2a/kappa constant regions) VH: QVQLVQSGAEVKKPGSSVKVSCKASGGTFKNYAISWVRQAPGQGLEWMGWIRPIFGTAYYAQKFQGRVTITADESTSTAYMELSSLRSEDTAVYYCARDSGSRYAGRYAFDYWGQGTLVTVSS VL: EIVLTQSPATLSLSPGERATLSCRASQSVSSYLAWYQQKPGQAPRLLIYDASNRATGIPARFSGSGSGTDFTLTISSLEPEDFAVYYCQQRSNWPLTFGQGTKVEIKR | no binding (tested: 500 nM) | 2.8 | 0.00111 | 399000 | 2.62 | 0.000982 | 376000 | – | – | – | Kd [1]: 0.667 nM; koff [1]: 0.00229 s⁻¹; kon [1]: 3.45e+06 M⁻¹ s⁻¹
2 | I23RB33 (antibody, mouse IgG2a, kappa, V domains shown, mouse immunization; mouse IgG2a/kappa) VH: EVQLQQSGAELVKPGASVKLSCTASGFNIRDIYIHWVKQRPEQGLEWIGRIDPANGHSIYAAKFQGKATITADTSLNIAYMQLSSLTSGDTAVYYCARGSDNDYGRVLAYWGLGTSVTVSS VL: DIVLTQSPAIMSASPGEKVTMTCRASSSVRSSYLHWYQQKSGASPKLWIYSTSNLASGVPARFSGSGSGTSYSLTITSVEAEDAATYYCQQYTGNPIFTFGSGTKLELKR | no binding (tested: 500 nM) | 0.162 | 0.000155 | 957000 | 0.218 | 0.000146 | 672000 | 0.216 | 0.000149 | 691000 | –
3 | I23RB35 (antibody, mouse IgG2a, kappa, V domains shown, mouse immunization; mouse IgG2a/kappa) VH: DVQLQESGPGLVKPSQSLSLTCSVTGYSITSGHNWNWIRQFPGNKLEWLGYISYDGSNNYDPSLKNRISITRDTSKNQFFLKLNSVTTEDTATYYCARGGGYFGNSYRVFASWGQGTTVTVSS VL: DIVLTQSPASLAVSLGQRATISCRASESVDSYGNSFMHWYQQKPGQPPKLLIYRASNLESEIPARFSGRGSGTDFTLTINPVEADDVATYYCQQSNADPYTFGGGTKLEIKR | no binding (tested: 500 nM) | < 0.0527 | < 2.89e-05 | 549000 | < 0.0777 | < 2.89e-05 | 372000 | < 0.0687 | < 2.89e-05 | 421000 | –
4 | I23RB32 (antibody, mouse IgG2a, kappa, V domains shown, mouse immunization; mouse IgG2a/kappa) VH: EFQLQQSGPELVKPGASVKLSCKASGYTFTDYALHWVKQSPGQGLEWIGWIYPGGGNTYYNDKFKGKATMTADKSSSTAYMQLSSLTSEDSAVYFCARGRLRRDYPMDYWGQGTSVTVSS VL: DIVMTQSPSSLTVTAGEKVTMSCKSSQSLLNSGNQKNYLTWYQQKPGQPPKLLIYWASTRESGVPDRFTGSGSGTDFTLTISSVQAEDLAVYYCQNDYTYPLTFGSGTKLEIKR | no binding (tested: 500 nM) | 0.332 | 0.000182 | 550000 | – | – | – | 0.34 | 0.000172 | 506000 | –
5 | I23RB7 (antibody, mouse IgG2a, kappa, V domains shown, phage display (mouse library); mouse antibody, mouse IgG2a/kappa) VH: QIQLVQSGPELKKPGETVKISCKASGYTFTTYGMSWVKQAPGKGLKWMGWINTYSGVPTYADDFKGRFAFSLETSASTAYLQINNLKNEDTATYYCARRDRYGYVAGAFAYWGQGTLVTVSS VL: QIVLTQSPAIMSASPGEKVTMTCSASSSVSYMYWYQQKPGSSPRLLIYDTSNLASGVPVRFSGSGSGTSYSLTISRMEAEDAATYYCQQWSSYPWTFGGGTKLEIKR | – | – | – | – | 1.23 | 0.000247 | 200000 | 1.23 | 0.000246 | 199000 | Kd [1]: 0.39 nM; koff [1]: 0.000226 s⁻¹; kon [1]: 581000 M⁻¹ s⁻¹; Kd [2]: 524 nM; koff [2]: 0.0127 s⁻¹; kon [2]: 24200 M⁻¹ s⁻¹
6 | I23RB47 (antibody, mouse IgG2a, kappa, V domains shown, mouse immunization; mouse IgG2a/kappa) VH: QVQLKESGPGLVAPSQSLSITCTVSGFSLTNYDIHWVRQSPGKGLEWLGVIWSDGRTDYKGAFISRLSISKDNSKSQVFFKMNSLQADDTAIYYCARNNYYRYGRNTMDYWGQGTSVTVSS VL: DIVLTQSPASQSASLGESVTITCLASQTIGSWLAWYQQKPGKSPQLLIYAATRLADGVPSRFSGSGSGTKFSFKISSLQAEDFVFYYCHQLYSIPLTFGGGTKLEMKR | no binding (tested: 500 nM) | – | – | – | 0.119 | 5.32e-05 | 445000 | 0.114 | 5.17e-05 | 453000 | Kd [6]: < 0.051 nM; koff [6]: < 2.89e-05 s⁻¹; kon [6]: 566000 M⁻¹ s⁻¹
7 | I23RB318 (antibody, mouse IgG2a, kappa, V domains shown, phage display; human V, mouse IgG2a/kappa) VH: QVQLVQSGAEVKKPGSSVKVSCKASGGTFSSYAISWVRQAPGQGLEWMGGIIPIFGTANYAQKFQGRVTITADESTSTAYMELSSLRSEDTAVYYCARVRARHRGSFDYWGQGTLVTVSS VL: DIQMTQSPSSLSASVGDRVTITCRASQSIDRWLNWYQQKPGKAPKLLIYYASSLQSGVPSRFSGSGSGTDFTLTISSLQPEDFATYYCQQSYSTPLTFGQGTKVEIKR | – | – | – | – | – | – | – | – | – | – | Kd [7]: 21 nM; EC50 [8]: 0.5 nM; EC50 [9]: 7.1 nM; MFI (6.4 nM) [9]: 196000 MFI
